Experimental findings from patent US20240148866A1 (DENALI THERAPEUTICS, published 2024) are described below.

Experiment [1] concerns the target T1, apical domain of human transferrin receptor (hTfR^apical) (human, UniProt P02786 198-378).
T1 construct: also called apical domain of hTfR
As to the kind of experiment: SPR (Biacore T200), IgG:IDS captured on Protein A chip, hTfR apical domain injected, single-cycle kinetics. The method, then:
(§1) The affinity of IgG:IDS for human transferrin receptor (hTfR) was determined by surface plasmon resonance on a Biacore™ T200 instrument using two methods, similar to previously described (Kariolis et al. 2020. Sci Transl Med 12(545):eaay1359). In Method 1, to evaluate monovalent TfR binding affinity, IgG:IDS was captured on a Protein A-coated Biacore™ Series S CM5 sensor chip and serial dilutions of the apical domain of hTfR (hTfR^apical) were injected over the captured sample. In Method 2, for evaluation of apparent hTfR binding affinity of IgG:IDS, biotinylated full-length hTfR was immobilized on a streptavidin-coated CM5 sensor chip, followed by injection of serial dilutions of IgG:IDS. For both methods, the single-cycle kinetics mode was used for sample injection (association time, 90 s; dissociation time, 600 s), and binding affinities were calculated using Biacore T200 Evaluation Software v3.0.

The target in experiment [2] is T2, Fc fusion of the 9th domain of human cation independent mannose-6-phosphate receptor (ciM6PR; Uniprot P11717) (human, UniProt P11717 1225-1363, limits assumed).
T2 construct: domain: 9th domain; It was coated on ELISA plates at 1 ug/mL
The experiment can be described thus: ELISA: plate coated with the Fc fusion of ciM6PR domain 9, IgG:IDS titrated, detection with biotinylated anti-IDS antibody and streptavidin-HRP, A450. The method, then:
ELISA plates were coated with an Fc fusion of the 9th domain of human cation independent mannose-6-phosphate receptor (ciM6PR; Uniprot P11717) at 1 μg/mL in PBS overnight at 4° C. The following day, the plate was washed three times with wash buffer (PBS with 0.02% Tween-20) and blocking buffer (PBS with 0.02% Tween-20 and 5% BSA) was added to each well. Blocking was carried out for 1 hour at room temperature after which the plate was washed three times, and IgG:IDS was added to the first column of the plate at a concentration of 25 nM. A 3-fold serial dilution was performed across the plate. Primary incubation of the binding reactions was carried out for one hour at room temperature. After binding, the plate was washed three times, and binding was detected using biotinylated anti-IDS antibody diluted to 0.0625 μg/mL in sample buffer. The plate was incubated with a detection antibody for one hour at room temperature and then washed three times. Streptavidin-HRP, diluted 1:50,000 in sample buffer, was then added to each well. The plate was incubated for 30 minutes at room temperature and then washed three times. The ELISA was developed using TMB reagent. The ELISA plate was read on a HighRes BioTek Synergy plate reader, where the absorbance at 450 nm was recorded.

In experiment [3] the target is T3, biotinylated full-length human transferrin receptor (hTfR) (human, UniProt P02786 89-760, limits assumed, biotinylated (site not stated)).
T3 construct: Printed as 'biotinylated full-length hTfR', immobilized on a streptavidin chip; also called full-length hTfR; full-length receptor
The experiment can be described thus: SPR (Biacore T200), biotinylated full-length hTfR on streptavidin chip, IgG:IDS injected, single-cycle kinetics; apparent (avid) affinity. As for the experimental part:
as §1

T2 sequence (P11717 1225-1363 limits assumed, one chain of several): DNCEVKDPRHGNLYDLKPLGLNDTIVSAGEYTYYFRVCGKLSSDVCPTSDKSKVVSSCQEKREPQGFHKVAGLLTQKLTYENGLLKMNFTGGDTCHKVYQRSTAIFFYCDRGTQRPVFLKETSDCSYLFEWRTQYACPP
T1 sequence (P02786 198-378 limits assumed): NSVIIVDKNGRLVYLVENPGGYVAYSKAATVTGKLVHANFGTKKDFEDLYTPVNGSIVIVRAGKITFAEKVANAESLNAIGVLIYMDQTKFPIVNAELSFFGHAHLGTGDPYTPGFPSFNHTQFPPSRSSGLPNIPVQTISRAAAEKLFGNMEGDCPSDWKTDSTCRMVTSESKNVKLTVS
T3 sequence (P02786 89-760 limits assumed): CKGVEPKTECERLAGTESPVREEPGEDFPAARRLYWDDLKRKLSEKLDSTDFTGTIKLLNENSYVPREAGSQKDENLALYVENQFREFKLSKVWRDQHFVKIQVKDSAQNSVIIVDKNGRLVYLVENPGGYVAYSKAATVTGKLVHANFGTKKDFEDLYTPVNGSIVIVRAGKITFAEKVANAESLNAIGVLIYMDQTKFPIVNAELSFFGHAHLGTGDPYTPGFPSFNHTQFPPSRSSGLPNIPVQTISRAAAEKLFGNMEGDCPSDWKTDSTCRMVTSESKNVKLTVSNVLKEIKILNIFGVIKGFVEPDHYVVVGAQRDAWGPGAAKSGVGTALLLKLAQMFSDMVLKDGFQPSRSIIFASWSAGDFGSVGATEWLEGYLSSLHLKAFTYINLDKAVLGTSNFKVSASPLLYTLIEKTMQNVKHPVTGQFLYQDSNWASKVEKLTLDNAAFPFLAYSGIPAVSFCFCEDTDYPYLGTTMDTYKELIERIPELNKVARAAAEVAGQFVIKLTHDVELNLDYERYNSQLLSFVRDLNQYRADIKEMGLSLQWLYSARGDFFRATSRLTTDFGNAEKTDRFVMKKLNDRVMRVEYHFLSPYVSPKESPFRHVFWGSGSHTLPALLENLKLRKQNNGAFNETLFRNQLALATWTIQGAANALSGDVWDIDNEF

B1: IgG:IDS fusion protein (anti-transferrin receptor antibody with an IDS enzyme linked to the C-terminus of each heavy chain) (antibody)
heavy: not shown
light: DIVMTQTPLSLSVTPGQPASISCRSSQSLVHSNGNTYLHWYLQKPGQSPQLLIYKVSNRFSGVPDRFSGSGSGTDFTLKISRVEAEDVGVYYCSQSTHVPWTFGQGTKVEIKRTVAAPSVFIFPPSDEQLKSGTASVVCLLNNFYPREAKVQWKVDNALQSGNSQESVTEQDSKDSTYSLSSTLTLSKADYEKHKVYACEVTHQGLSSPVTKSFNRGEC
modifications: formylglycine (fG) in place of the Cys in the IDS part in the form given as SEQ ID NO:18; glycans carry about 1.5-2.3 mol/mol M6P and about 15-16 mol/mol sialic acid per fusion protein
notes: Antibody-enzyme fusion with human IgG1 constant regions, expressed in ExpiCHO cells co-transfected with SUMF1
For B1, the Kd in experiment [1] is 2.6 nM; in experiment [3], approximately 0.1 nM. Moreover, in experiment [2], the “EC50 (read off the curve)” value was approximately 0.08 nM.
